In the nanobody polyreactivity screen of Harvey et al. (2022):

Experiment: yeast display, Sf9 membrane polyspecificity reagent, FACS + sequencing; frameworks hold sequencing errors
Summary of the method: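 Using colony PCR, genes from sorted yeast display clones were amplified, then sequenced on MiSeq at 2 × 250 and filtered by CDR length. The clones had been stained with 10% biotinylated, detergent-solubilized Sf9 membrane reagent for 1 hour at 4 °C and sorted by FACS into low and high (top ~1%) gates on anti-HA and streptavidin fluorescence. Polyreactivity labels come from the gate of origin.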

| Sequence | polyreactivity (PSR sort gate) |
| --- | --- |
| QVQLVESGGGLVQAGGSLRLSCAASGSIFRGYTMGWYRQAPGKERELVAAITSGDSTNYADSVKGRFTISRDNAKNTVYLQMNSLKPEDTAVYYCAAGRLYLPYLVYRTYSFVGYYYWGQGTQVTVSS | high polyreactivity |
| QVQLVESGGGLVQAGGSLRLSCAASGRIFTTYTMGWYRQAPGKERELVAAISKRGGSTYYADSVKGRFTISRDNAKNTVYLQMNSLKPEDTAVYYCAAVGGRFFAPYIWSVDSYDYWGQGTQVTVSS | high polyreactivity |
| QVQLVETGGGLVQAGGSLRLSCAASVFTFPTYTMGWYRQAPGKEREFVARITKRGGSTYYADSVKGRFTISRVNVKNTVYLQRKCVKPEDTAVYYCDAGFWWSSYGYWGQGSQVTVSS | high polyreactivity |
| QVQLVESVGGLDQAGGSLRLSCAASALIFPRYDMGSYRQAPGKERELDAAITSGGGTYNADSVKGRFTISRDNAKITVYLQMNSLKPEDTAVYYCAAGPVFGGGGYDYWGQGTQVTVSS | low polyreactivity |
| QVQLVESGGGLVQAGGSLRLTCADSGNILLFNAMGWYRQAPGKERELVATINQSGGRTYYADSVKGRFTISRDNAKNTVYLQMNSLKPEDTAVYYCNAERHPYYYWHTQRLDYWGQGTQVTVSS | low polyreactivity |
| QVQLVESGGGLVPAGGSLRLSCAASGSTFIPNTMGWYRQAPGKERELVAAISRRGGSTNYADSVKGRFTISRDNAKNTVYLQMNSLKPEDTAVYYCAAVSPRRYRYDYWGQGTQVTVSS | low polyreactivity |
| QVQLVESRGCLVQAGGSLRLSCSASGYIFVYYAMGWYRQAPGKEWELVAAISRGGSTYYADSVKGRFTISRDNAKNTVYLQMNSLKPEDTAVYYCNKVLPYGREYGYCGQGTQVTVSS | high polyreactivity |
| QVQLVESGGGLVQAGGSLRLSCAASGFTFVRYAMGWYRQAPGKDRELVAAISKSGGRTYYTDSVKGRFTISRDNAKTTVYLQMNSLKPEDTAVYYCAADPVSDYYGYGYWGQGTQVTVSS | high polyreactivity |
| QVQLVESGGGLVQAGGSLRLSCAASGSIFQDYAMGWSRQAPGKERELVAVITRGGSKYYADSVKGRFTISRDNAKNTVYLQMNSLKPEDTAVYYCNTRRGRGGKYDYWGHGTQVTVSS | low polyreactivity |
| QVQLVESGGGLVQAGGSLRLSSAASGNIIKYYAMGCYRQEPGKERELVAAINWSGGSTYYADSVKGRFTISRDNAKNTVYLQMNSLKPEDTAVYYCNVFSSGYYLFDYWGQGTQVTVSS | high polyreactivity |
| QVQLVDSGGGLVQAGASLRLSCAASGIIFWSYTMGWYRQAPGKERELVAAINWSGTRTYYADSVKGRFTISRDNAKNTVYLQMNSLKTEDTAVYYCNADSRYRSFDYWGQGTQVTVSS | high polyreactivity |
| QVQLVESGGGLVQAGGSLRLSCAAAGRTFYSYAMGWYRQAPGKEREFVAAINWSGTSTYADSVKGRFTISRDNAKNTVYLQMTSLKPEDTAVYYCAADLPAEYYHWGQGTQVTVSS | high polyreactivity |
| QVQLVESGGGLVQAGGSLRLSCAASGRTFLPNDMGWSIQAPGKERELVAAITDSGGDTYYADSVKGRFTISRDNAKNTVYLQMNSLKPEDTAVYYCAADYYYYGSYYPVEYWGQGTQVTVSS | high polyreactivity |
| QVQLVESGGGLVQAGGSLRLSCAASGRIISPYAMGWYRQAPGKERELVAAISWRGSSTYYADSVKGRFTISRDNAKNTVYLQMNSLKPEDTAVYYCAAVYYRGIQSYDYWGQGTQVTVSS | low polyreactivity |
| QVQLVESGGGLVQAGGSLRLSCAASGRTFVPYVMGWYRQAPGKESELVASITSGGSTYYADSVKGRFTISRDNAKNTVYLQMNSLKPEDTAVYYCATRQSAERWGYYYWGQGTQVTVSS | low polyreactivity |
| QVQLVESGGGLVQAGGSLRLSCAASGSIFGDNAMGWYRQAPGKERELVAAISIVGSTSYADSVKGRFTISRDNAKNTVYLQMNSLKPEDTAVYDCAAEIVRSDTGFDYWGQGTQVTVSS | low polyreactivity |
| QVQLVESGGGLVQAGGSLRLSCAASGSIFGSNAMGWYRPAPGKERELVAAITNTGRTNYADSVKGRFTISRDNAKNTVYLQMNSLKPEDTAVYYCYTDGYEFTHFVGGWYQIIDYDYWGQGTQVTVSS | low polyreactivity |
| QGQHVESGVGLVQAGGSLRLSCAASVFMFESNAMGWYRQAPGKERELVAAITSAGRTYYADSVKGRFTISRDNAKNTVYLQMNSLKPEETAVYYCNAPRSRYRYDYWGQGTQVTVSS | high polyreactivity |
| QVQLVESGGGLVQAGGSLRLSCAASGSIFDGNAMGWYRKATGKERELVAAITNSGGSTYYADSVNGRFTISPENAMNSVYLQKNSLKPEDTAVYYCNALPFAWRRYRWLRTMYYWGQGTQVTVSS | low polyreactivity |
| QVQLVESGGGLVQAGGSLRLSCAASGFIIEVNAMGWYRQAPGKERELVARIDWSGGSTYYADSVKGRFTISRDNAKNTVYLQMNSLKPEDTAVYYCNADWTYADPNEYGYWGQGTQVTVSS | low polyreactivity |
| QVQLQESGGGLVQAGGGLRLSCAASGTISGPHVMGWYRQAPGKEREFVAAINVGANTYYADNVKGRFTISRDNAINTVYLQMNSLKPEDTAVYYCAAVYYGDIGHEYWGQGTQVTVSC | low polyreactivity |

| Sequence | polyreactivity (PSR sort gate) |
| --- | --- |
| QVQLVESGGGLVQAGGSLRLSCAASGIIFDTYVMGWYRQAPGKERELVAAITRSGGRTRYADSVKGRFTISRDNAKNTVYLQMNSLKPEDTAVYYCAARIPDRQDGYGYWGQGTQVTVSS | high polyreactivity |
| QVQLVESGGALVQAGGSLRLSCAASGRIFIVYAMRWYRQAPGKERELVASITSGASTNYADSVKGRFTISRDNAKNTVYLQMNSLKPEDTAVYDCNADGPGAYLSEFGYWGQGTQVTVSS | low polyreactivity |
| QVQLVESGGGLVQAGGSLRLSCAASGYTSRYYAMGWYRQAPGKERELVAAITSGGSTNYADSVKGRFTISRDNAKNTVYLQMNSLKPEDTAVYYCAKGQYPWSYVLQTYIYDYWGQGTQVTVSS | low polyreactivity |
| QVQLVESGGGLVQAGGSLRLSCAASGRIRRYYAMGWYRPAPGKEMELVAVITSSDGSTYYADSVKGRFTISRDNAKTTVYLQMNSLKPEDTAVDYCAAAPLWRLDSWSDPYRRYDYWGQGTQVTVSS | low polyreactivity |
| QVQLVESGGGLVQAGGSLRLSCAASGRTLPPNAMGWYRQAPGKERELVAGITWSGGSTYYADSVKGRFTISRDNAKNTVYLQMNSLKPEDTAVYYCAASRSFPGYGLYYYWGQGTQVTVSS | low polyreactivity |
| QVQLVESGGGLVQAGGSLRLSCAASGRTFGYYAMGWYRQAAGKDREFVAAITAGRGSTYYPDSVKGRFTISRDNAKNTVYLQMNSLKPEETAVYYCNAVPPGRTPVKGNFYYWGQGTQVTVSS | high polyreactivity |
| QVQLVESGGGLVQAGGSLRLSCAASGSTFPYYAMGWYRQAPGKERELVAAITSSASTYYADSVKGRFTISRDNAKNTVYLQMNSLKPEDTAVYYCAVRSPYRLSRWRVGYWGQGTQVTVSS | high polyreactivity |
| QVQLVESGGGLVQAGGSLRLSCAASGSIFEIYDMGWYRQAPGKERELVASIRTSGGSTYYADSVKGRFTISRDNAKNTVYLQMNSLKPEDTAVYYCATGWSWYHPDYDYWGQGTQVTVSS | low polyreactivity |
| QVQLVESGGGLVQAGGSLRLSCAASGSTVVIKAMGWYRQAPGKERELVARISSSGGRTYYADSVKGRFTISRDNAKNTVYLQMNSLKPEDTAVYYCAKRGYLFLRGSVRVGYNYWGQGTQVTVSS | low polyreactivity |
| QVQLVESGGGLVQAGGSLRLSCAASGFIFTLYTMGWYRPAPGKERELVAAIDKKGSTYYADSVKGRFTISRDNAKNTVYLQMNSLKPEDTAVYYCAADDRYRGNREDYWGQGTQVTVSS | low polyreactivity |
| QVQLVESGGGLVQAGGSLRLSCAASGSIFRYNAMGWYRQAPGKERELVAAIDWSGGTYYADSVKGRFTISRDNAKNTVYLQMNSLKPEDTAVYYCNARGSKYSSYWGYDYWGQGTQVTVSS | low polyreactivity |
| QVQLVESGGGLVQAGGSLRLSCAASGSIFYSYAMGWYRQAPGKERELVAAISYRGGSTYYADSVKGRFTISRDNAKNTVYLQMNSLKPEDTAVYYCAADARQSRYNYWGQGTQVTVSS | high polyreactivity |
| QVQLVESGGGLVQAGGSLRLSCAASGSIFGYYAMGWYRQAPGKERELVAAINSSGGSTYYADSVKGRFTISRDNAKNTVYLQMNSLKPDDTAVYYCAVRTRYKFNYWGQGTQVTVSS | low polyreactivity |
| QVQLVESVGGLVQAGGSLRLSCAASVRTFSSYAMGWYRKPPGKERELVAVITSGSSTHYADSVKGRFTISRDNAKNTVYLQMNSLKPEDTAVYYCAARDIREIDCISYWYDYWGQGTQVTVSS | high polyreactivity |
| QVQLVESGGGLVQAGGSLRLSCAASGRTFRRYAMGWYRQAPGKERELVAAITYRGGSTYYADSVKGRFTISRDNAKNTVYLQMNSLKPEDTAVYYCNKQGNGQLGTTQGRYDYWGQGTQVTVSS | high polyreactivity |
| QVQLVESGGGLVQAGGSLRLSCAASGRIFGGYAMGWYRQAPGKERELVAAISSGGNTKYADSVKGRFTISRDNAKNTVYLQMNSLKPEDTAVYYCAAAPYARREYEYWGQVTQVTVSS | high polyreactivity |
| QGQLVESGGGLVQAGGSLRLSCAASGSIFDTYAMGWYRQAPGKERELVAAITRRAGSTYYADSVKGRFTISRDHAKNTLYFQMNSLKPEETSVYYCAAGYDRYPGGIDEYWGQGTQVTVSS | low polyreactivity |
| QVQLVESGGGLVQAGGSLRLSCAASGFTFKYYAMGWYRQAPGKERELVATITRSGGNTYYADSVKGRFTISRDNAKNTVYLQMNSLKPEDTAVYYCNKGVRRSVYSRYDYWGQGTQVTVSS | high polyreactivity |
| QVQLVESVGGLVQAGGSLRLSCAASGIIFSCYAMGWYRQAPGKERELVAAISSSGGTTFYADSVKGRFTISRDNAKNTVYLQMNSLKPVDTAVYYCAVVGPPYYTWRVWRPAYDYWGQGTQVTVSS | high polyreactivity |
| QVQLQESGGGLVHAAGILRLSCAACGNIFPSAVMGWYRQALGKEREFVATLNSGSNTYYADSVKGRFTIRRDNAKNTVYLQMNSLKLEDTGVYYCAAYFNLPAWHTYWGQGTQVTVSS | low polyreactivity |
